Results on one molecule are retold here after patent publication US20230279130A1.

The target of the test is full length human CCR8 (hCCR8) (human) (UniProt P51685).

B1: benchmark anti-CCR8 antibody 4A19 (Bristol Myers Squibb) (antibody, from another filing, IgG1, V domains shown)
VH: QVQLVQSGAEVKKPGASVKVSCKASGYTFTDSEMHWVRQATGQGLEWMGAIQPETGGTAYNQKFKARVTMTRDTSISTAYMELSSLRSEDTAVYYCARRRRNFDYWGQGTLVTVSS
VL: DIVMTQTPLSLSVTPGQPASISCRSSQSLFHSSGNTYLHWYLQKPGQPPQLLIYKVSNRFSGVPDRFSGSGSGTDFTLKISRVEAEDVGVYYCSQSTHVPFTFGQGTKLEIKR
B1 yielded an IC50, inhibition of chemotaxis of hCCR8-transfected P815 cells to 1 nM CCL1 (intact IgG1, Cell Titer Glo) of 6.53 ng/mL.
